In assay [1] the target is T1, recombinant DLL3 protein (purchased from ACRO, DL3-H5255) (human, UniProt Q9NYJ7 27-479).
T1 construct: Bought; also called human DLL3 protein; hDLL3
T1 sequence (looked up): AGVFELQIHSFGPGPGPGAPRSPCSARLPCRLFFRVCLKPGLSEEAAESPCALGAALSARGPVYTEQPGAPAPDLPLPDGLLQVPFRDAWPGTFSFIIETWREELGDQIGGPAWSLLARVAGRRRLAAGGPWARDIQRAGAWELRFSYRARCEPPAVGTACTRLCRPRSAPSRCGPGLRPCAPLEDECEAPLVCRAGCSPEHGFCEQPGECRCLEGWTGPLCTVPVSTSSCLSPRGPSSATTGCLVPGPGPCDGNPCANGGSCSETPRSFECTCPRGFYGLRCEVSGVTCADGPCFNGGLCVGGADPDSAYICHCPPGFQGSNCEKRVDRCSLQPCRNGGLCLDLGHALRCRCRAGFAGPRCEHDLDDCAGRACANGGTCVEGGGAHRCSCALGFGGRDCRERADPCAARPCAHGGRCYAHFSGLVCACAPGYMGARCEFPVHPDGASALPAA
The assay is described as follows: ELISA, plate-coated human DLL3 protein 1 µg/ml. The text has this:
Six 6-week-old SPF grade female Balb/C mice (purchased from Shanghai Jihui Laboratory Animal Care Co., Ltd.) were selected and randomly divided into two groups, A and B. They were immunized with recombinant DLL3 protein (purchased from ACRO, DL3-H5255) at two-week intervals. Freund's complete adjuvant was used for the first immunization and Freund's incomplete adjuvant was used for subsequent immunizations. On days 35 and 49, blood samples were collected from the mice via orbital bleeding, and the immune serum titers of the mice were detected using conventional methods of ELISA and Flow Cytometry (FACS). ELISA detection method: DLL3 protein was diluted with PBS to a concentration of 1 μg/ml. 100 μl/well was added to a 96-well ELISA plate and incubated overnight at 4° C. The next day, the supernatant was discarded, and each well was blocked with 200 μl of 2% milk in PBS for 2 hours. After discarding the blocking solution, the wells were washed 3 times with 200 μl of PBST (0.1% Tween20). The serum to be detected was pre-diluted 100 times as the starting concentration, followed by a 3-fold gradient dilution across 11 concentrations, with 100 μl added to each well of the ELISA plate. After incubating at room temperature for 1 hour, the supernatant was discarded and the wells were washed 5 times with 200 μl of PBST (0.1% Tween20). Then, 100 μl of HRP-labeled goat anti-mouse secondary antibody (Jackson, 1:10000) was added and incubated at room temperature for 1 hour. After discarding the supernatant, the wells were washed 7 times with 200 μl of PBST (0.1% Tween20). 100 μl of TMB chromogen solution was added to each well for 10 minutes. The reaction was terminated with 2M HCl, and absorbance value at 450 nm was read with a Microplate Reader (purchased from Biotek, Elx808).
For the hybridoma clones with good binding and internalization activities identified in Example 5, the heavy chain variable region sequences were synthesized and cloned into the pFUSEss-CHIg-hG1 vector (purchased from InvivoGen, catalog number pfusess-hchgl) comprising the amino acid sequence of the human antibody IgG1 heavy chain constant region by homologous recombination.

The target of assay [2] is T2, human DLL3, His tag (acrobiosystems, DL3-H52H4) (human, UniProt Q9NYJ7 27-492).
T2 construct: Bought; also called human DLL3 protein; free DLL3; not shown: His tag
T2 sequence (looked up): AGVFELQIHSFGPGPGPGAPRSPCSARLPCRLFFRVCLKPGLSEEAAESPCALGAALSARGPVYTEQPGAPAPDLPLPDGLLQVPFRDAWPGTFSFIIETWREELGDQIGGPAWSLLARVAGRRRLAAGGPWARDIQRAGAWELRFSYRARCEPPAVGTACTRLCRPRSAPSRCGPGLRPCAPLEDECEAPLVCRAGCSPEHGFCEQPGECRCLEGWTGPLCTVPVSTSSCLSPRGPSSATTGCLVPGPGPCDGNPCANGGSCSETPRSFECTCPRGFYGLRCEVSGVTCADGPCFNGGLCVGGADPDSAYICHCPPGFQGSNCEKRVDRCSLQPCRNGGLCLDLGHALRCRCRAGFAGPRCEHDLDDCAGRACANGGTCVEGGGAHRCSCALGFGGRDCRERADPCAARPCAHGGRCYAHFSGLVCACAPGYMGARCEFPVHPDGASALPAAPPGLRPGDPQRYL
The assay is described as follows: BLI (Octet 96e), antibody on sensor, DLL3-His 100-3.13 nM in solution. How it is done:
To assess the affinity of antibodies for human DLL3 protein, this study employed the BLI method to detect the binding kinetics curves of immobilized antibodies with free DLL3. The method was conducted according to the instrument's user manual (supplier: Fortebio, equipment model: Octet 96e). Briefly, AMC sensors were equilibrated for 60 s with Loading Buffer/Sample dilution buffer (1×PBS, pH7.4, with 0.1% BSA and 0.02% Tween-20) to obtain Baseline 1. The antibodies to be detected were diluted with Loading Buffer to a concentration of 10 ug/ml and bound to the equilibrated sensors, after which the sensors were re-equilibrated with Loading Buffer to obtain Baseline 2. The antibody-loaded sensors were then placed in human DLL3, His tag (supplier: acrobiosystems, catalog number: DL3-H52H4) diluted with Sample Dilution Buffer to concentrations ranging from 100 to 3.13 nM for 90 s to obtain the antibody-protein binding curve. Then, the sensors combined with antigen were placed in the Sample Dilution Buffer again and dissociated for 180 s, and the dissociation curve was obtained. The k-on and k-off values of the antibody-protein binding were calculated based on the binding and dissociation curves, and the KD values were calculated, with the results shown in Table 4.
In general terms: In BLI a coated tip is dipped into the sample, and binding shifts an interference pattern.

In assay [3] the target is T3, human DLL4 (purchased from Acro, DL4-H5227) (human, UniProt Q9NR61 27-524).
T3 construct: Bought; also called hDLL4
T3 sequence (Q9NR61 27-524 limits assumed): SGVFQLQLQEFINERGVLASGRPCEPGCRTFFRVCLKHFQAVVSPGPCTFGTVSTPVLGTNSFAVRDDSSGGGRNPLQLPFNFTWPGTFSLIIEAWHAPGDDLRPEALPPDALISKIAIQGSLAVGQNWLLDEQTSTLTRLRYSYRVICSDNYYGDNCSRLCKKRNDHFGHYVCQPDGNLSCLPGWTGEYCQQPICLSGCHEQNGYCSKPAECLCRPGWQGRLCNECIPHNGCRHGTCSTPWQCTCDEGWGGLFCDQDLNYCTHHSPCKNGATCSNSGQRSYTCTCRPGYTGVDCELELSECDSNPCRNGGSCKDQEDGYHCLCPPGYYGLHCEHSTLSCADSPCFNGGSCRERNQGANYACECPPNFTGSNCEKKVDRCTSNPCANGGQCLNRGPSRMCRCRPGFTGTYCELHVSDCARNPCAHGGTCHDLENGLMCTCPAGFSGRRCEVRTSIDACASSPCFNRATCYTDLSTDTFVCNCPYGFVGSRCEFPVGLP
As to the kind of experiment: ELISA on plate-coated human DLL4 protein (1 µg/ml), HRP goat anti-human secondary, OD 450 nm [right panel]. How it is done:
(§1) The chimeric antibodies obtained in Example 6 were evaluated for their binding abilities to human DLL1 (purchased from Acro, DL1-H52H8) and DLL4 (purchased from Acro, DL4-H5227) proteins using the ELISA method. The ELISA detection method involved diluting DLL1 and DLL4 proteins with PBS to a final concentration of 1 μg/ml and coating them onto 384-well ELISA plates (purchased from Corning, 3700) at 4° C. overnight. The next day, the supernatant in the plate wells was discarded, and the wells were blocked with 80 μl of 3% milk (dissolved in PBS) for 2 hours, followed by washing three times with 80 μl of PBST (0.1% Tween20). […] After washing with 80 μl of PBST (0.1% Tween20) for five times, 25 μl of HRP-labeled goat anti-human secondary antibody (Jackson, 1:10000) was added to each well and incubated at room temperature for 1 hour, discard the supernatant, and the wells were then washed seven times with 80 μl of PBST (0.1% Tween20). After adding 25 μl of TMB chromogen solution for 10 minutes, the reaction was terminated with 2M HCl, and the absorbance value at 450 nm was measured with a Microplate reader (purchased from Biotek, Elx808). […] To assess the cross-reactivity of the antibodies with mouse and monkey DLL3, mouse DLL3-expressing plasmid pCMV3-mDLL3 (purchased from Beijing Yiqiao, MG58052-UT) and monkey DLL3-expressing plasmid pCMV3-rheDLL3 (purchased from Beijing Yiqiao, CG90919-UT) were used to construct overexpressing cell lines. The construction of overexpressing cells was as described in Examples 2-3. The binding abilities of the chimeric antibodies to these cells were determined by flow cytometry to assess the cross-reactivity of the antibodies with different species.
On the technique in general: ELISA stands for enzyme-linked immunosorbent assay.

Assay [4] has as its target T3, human DLL4 (purchased from Acro, …). The assay is described as follows: ELISA, plate-coated protein 1 µg/ml. How it is done: as §1

B1: ch36H10 (antibody, human IgG1, kappa, V domains shown)
VH: EVQFQQSGPELVKPGASVKISCKASGYTFTDYNIHWVRQSQGKSLEWIGLIYPFNGGIVYNQKFKSKATLTVDNSSTSAYMELRSLSSEDSAVYFCARLNWEGYWGQGSTLIVSS
VL: DIKMTQSPSSIYAFLGERVTITCKASQDINSYLSWFQQKPGKSPKTLIYRANRLVGGVPSRFSGSGSGQDYSLTISSLEYEDVGDYYCLQYAEFPYTFGGGTKLEIKR
notes: Chimeric: murine variable regions on human IgG1 heavy and kappa light constant regions; also called chimeric antibody 36H10
For B1, in assay [1], the EC50 worked out at 0.0159 µg/mL. In assay [2], the Kd is 0.0991 nM, the koff came out at 0.000168 s⁻¹ and the kon turned out to be 1.69e+06 M⁻¹ s⁻¹. Further, the binding result in assay [3] is recorded as “no binding (tested: 20 µg/ml)”.

B2: ch4H7 (antibody, human IgG1, kappa, V domains shown)
VH: EVQLQQSGAELVRPGALVKLSCKASGFNFKDYYIHWVKQRPELGLEWIGWIDPENGNAIYDPKFQDKASITADTSSNTAYLHLSSLTSEGTAVYYCASEDAYYPFAYWGQGTLVTVSA
VL: DIVMSQSPSSLAVSVGEKVTMRCKSSQSLLYSSNQKNYLAWYQQKPGQSPKLLIYWASTRESGVPDRFTGSGSGTDFTLTISSVKAEDLAVYFCQQYYSYRTFGGGTKLEIKR
notes: Chimeric: murine variable regions on human IgG1 heavy and kappa light constant regions; also called chimeric antibody 4H7
In the case of B2, the binding result in assay [4] is recorded as “no binding (tested: up to 20 µg/ml)”. Further, the EC50 in assay [1] was found to be 0.0115 µg/mL. Moreover, in assay [2], the Kd was found to be 0.104 nM, the off-rate (koff) stood at 0.000111 s⁻¹ and the kon stood at 1.07e+06 M⁻¹ s⁻¹.

For orientation: EC50 means the concentration that produces a half-maximal response. A word on the Kd: it is the constant that tells how readily two partners part at equilibrium. Read a high Kd as lower affinity. As a reminder, the koff is a measure of how fast the partners let go of each other. Lower therefore signals a long-lived complex. In general, kon refers to the rate constant with which the complex forms. A low value points to slow association.

(Values after US20250114467A1 (SHANGHAI FUDAN ZHANGJIANG BIO PHARMACEUTICAL, published 2025).)
